Publication PMC11224109, “Synthesis and preclinical evaluation of novel ^18F-vancomycin-based tracers for the detection of bacterial infections using positron emission tomography” (European Journal of Nuclear Medicine and Molecular Imaging, 2024)

Key:
[1] = Distribution coefficient LogD7.4, shake-flask n-octanol/PBS; format: physicochemical; conditions: shake-flask n-octanol/PBS pH 7.4, 500 µL each, 10 µL tracer in saline, vortexed 30 s, shaken 15 min, gamma counter, mean ± SD
Description: The tracer distribution coefficient in n-octanol/PBS pH 7.4 (LogD7.4) was determined using a shake-flask methodology. To an Eppendorf tube containing 500 µL n-octanol and 500 µL PBS, 10 µL tracer solution in saline was added. The vial was vortexed for 30 s and placed on an Eppendorf shaker for 15 min. After incubation, layers were separated by centrifugation (1 min at 10.000 rpm) and a fraction of the n-octanol layer was pipetted off. To minimize contamination of the bottom layer with the n-octanol layer, the bottom PBS layer was collected by puncturing the bottom of the Eppendorf tube with a 22G needle and aspirating a fraction of the PBS layer. Collected fractions were weighted to correct for collected volume and subsequently measured on a calibrated gamma counter and corrected for decay. LogD7.4 was calculated as [drawing 1] .

[2] = Biodistribution in vivo and PET in healthy mice; conditions: for tissue uptake at 0.5 h / tissue uptake at 1 h / tissue uptake at 1.5 h: male, C57BL/6, mouse, in vivo, iv, 2 MBq, total radioactivity, Biodistribution, healthy male C57BL/6 mice, penile vein injection, gamma counter, mean of n = 3; for tissue uptake at 0.5 h: 30 min; for tissue uptake at 1 h: 60 min; for tissue uptake at 1.5 h: 90 min
Description: All murine experiments were approved by the Animal Care and Use Committee of the University of Groningen under license protocol number 2114768-01-001. In vivo biodistribution was performed in male C57BL/6 mice (age 8 weeks, 25 g). Per tracer, the animals were divided in three groups based on the tracer distribution times (30 min, 60 min, and 90 min). […] Each experimental arm (i.e. time point) consisted of three animals. […] Tracer was administered at t = 0 via penile vein injection (2.0 ± 0.9 MBq in 100 µL 0.9% saline solution, Supplemental Table 2). After tracer administration, the animals were transferred to a Siemens Focus 220 microPET small animal scanner (Siemens, Munich, Germany) and scanned for the designated time, followed by a transmission scan of 10 min for attenuation correction. PET data were normalized and corrected for decay, after which the PET data were reconstructed using OSEM2D-Z1-SC-256. The PET data frames used for reconstruction were: 6 × 10 s, 4 × 30 s, 2 × 60 s, 120 s, 180 s, 4 × 300 s, 3 × 600 s, 1200 s or until the designated scan time was reached, taking into account a 10-min transmission scan following the emission scan. Next, animals were terminated, and organs harvested to assay biodistribution in a calibrated gamma counter (Wizard2, Perkin Elmer, Waltham, United States).

[3] = Summary of tracer stability in vitro and in vivo; conditions: summary table, in vitro and in vivo
Description: Stability of the tracers was determined in PBS and human plasma. In a typical experiment, 1 MBq of radioactivity (10–20 µL) was added to 250 µL of PBS or human plasma. Samples were heated to 37 °C on a shaker and sampled at fixed intervals. For samples containing human plasma, protein was precipitated using two volumes of cold MeCN. Precipitated samples were briefly centrifuged to pellet the insoluble fraction and supernatant was used for stability assessment. Supernatant (1 µL) was loaded on a TLC plate and imaged using BAS-IP MS 2025 E plates (Fujifilm, Tokyo, Japan) on an Amersham Typhoon Biomolecular Imager (GE Healthcare Bio-Sciences Corp, Chicago, United States) equipped with a phosphor imaging stage. [^18F]BODIPY-FL-vancomycin has an Rf of 0.68 (petroleum ether/MeOH 3:1), [^18F]FB-vancomycin has an Rf of 0.66 (2 M NaOAc/MeOH 5:1). For [^18F]PQ-VE1-vancomycin, conditions described in [44] were used.

SMILES: CN[C@H](CC(C)C)C(=O)N[C@H]1C(=O)N[C@@H](CC(N)=O)C(=O)N[C@H]2C(=O)N[C@H]3C(=O)N[C@H](C(=O)N[C@H](C(=O)O)c4cc(O)cc(O)c4-c4cc3ccc4O)[C@H](O)c3ccc(c(Cl)c3)Oc3cc2cc(c3O[C@@H]2O[C@H](CO)[C@@H](O)[C@H](O)[C@H]2O[C@H]2C[C@](C)(NC(=O)c3ccc4c5c(c6ccccc6c4c3)OCC(OCCF)O5)[C@H](O)[C@H](C)O2)Oc2ccc(cc2Cl)[C@H]1O (stereo partly drawn) [[^18F]PQ-VE1-vancomycin]
- LogD7.4 [1]: -0.51 ± 0.07 (n = 9)
- Crossing of the blood-brain barrier (BBB) ([2]; healthy mice, intravenous injection): no substantial signal was observed in the brain
- Accumulation ([2]; healthy mice, summary table): Accumulation in spleen, liver and lungs
- Clearance ([2]; healthy mice, summary table): Slow renal clearance
- Muscle uptake ([2]; healthy mice, summary table): Low muscle uptake
- tissue uptake at 0.5 h ([2]; Bladder): 3.12 %ID/g
- tissue uptake at 1 h ([2]; Bladder): 3.83 %ID/g
- tissue uptake at 1.5 h ([2]; Bladder): 3.73 %ID/g
- tissue uptake at 0.5 h ([2]; Bone): 1.14 %ID/g
- tissue uptake at 1 h ([2]; Bone): 1.34 %ID/g
- tissue uptake at 1.5 h ([2]; Bone): 0.75 %ID/g
- tissue uptake at 0.5 h ([2]; Brain): 0.14 %ID/g
- tissue uptake at 1 h ([2]; Brain): 0.14 %ID/g
- tissue uptake at 1.5 h ([2]; Brain): 0.17 %ID/g
- tissue uptake at 0.5 h ([2]; Fat): 0.81 %ID/g
- tissue uptake at 1 h ([2]; Fat): 0.79 %ID/g
- tissue uptake at 1.5 h ([2]; Fat): 0.55 %ID/g
- tissue uptake at 0.5 h ([2]; Heart): 3.54 %ID/g
- tissue uptake at 1 h ([2]; Heart): 2.6 %ID/g
- tissue uptake at 1.5 h ([2]; Heart): 1.82 %ID/g
- tissue uptake at 0.5 h ([2]; Kidneys): 3.37 %ID/g
- tissue uptake at 1 h ([2]; Kidneys): 2.73 %ID/g
- tissue uptake at 1.5 h ([2]; Kidneys): 2.04 %ID/g
- tissue uptake at 0.5 h ([2]; Large intestine): 2.28 %ID/g
- tissue uptake at 1 h ([2]; Large intestine): 1.81 %ID/g
- tissue uptake at 1.5 h ([2]; Large intestine): 1.98 %ID/g
- tissue uptake at 0.5 h ([2]; Liver): 10.5 %ID/g
- tissue uptake at 1 h ([2]; Liver): 9.33 %ID/g
- tissue uptake at 1.5 h ([2]; Liver): 7.72 %ID/g
- tissue uptake at 0.5 h ([2]; Lungs): 4.71 %ID/g
- tissue uptake at 1 h ([2]; Lungs): 3.8 %ID/g
- tissue uptake at 1.5 h ([2]; Lungs): 3.21 %ID/g
- tissue uptake at 0.5 h ([2]; Muscle): 0.86 %ID/g
- tissue uptake at 1 h ([2]; Muscle): 0.85 %ID/g
- tissue uptake at 1.5 h ([2]; Muscle): 0.6 %ID/g
- tissue uptake at 0.5 h ([2]; Plasma): 6.12 %ID/g
- tissue uptake at 1 h ([2]; Plasma): 4.47 %ID/g
- tissue uptake at 1.5 h ([2]; Plasma): 2.88 %ID/g
- tissue uptake at 0.5 h ([2]; Small intestine): 2.99 %ID/g
- tissue uptake at 1 h ([2]; Small intestine): 2.19 %ID/g
- tissue uptake at 1.5 h ([2]; Small intestine): 1.79 %ID/g
- tissue uptake at 0.5 h ([2]; Spleen): 7.89 %ID/g
- tissue uptake at 1 h ([2]; Spleen): 11.5 %ID/g
- tissue uptake at 1.5 h ([2]; Spleen): 8.39 %ID/g
- tissue uptake at 0.5 h ([2]; Stomach): 2.28 %ID/g
- tissue uptake at 1 h ([2]; Stomach): 2.45 %ID/g
- tissue uptake at 1.5 h ([2]; Stomach): 1.92 %ID/g
- tissue uptake at 0.5 h ([2]; Whole blood): 3.71 %ID/g
- tissue uptake at 1 h ([2]; Whole blood): 2.56 %ID/g
- tissue uptake at 1.5 h ([2]; Whole blood): 1.86 %ID/g
- Stability [3]: Stable in vitro and in vivo up to 2 h.
